Literature values in publication PMC7772776.

Legend:
Cys283 [1] = molecular target: Cys283 (UniProt position 283, GYVLTCPANLG)
Cys87 = Cys87 (UniProt position 87, RLGRICLDVLK)
Cys125 = Cys125 (UniProt position 126, PGDFGCDAQGA)
Cys46 = Cys46 (UniProt position 47, DFTFVCPTELG)
Cys124 = Cys124 (UniProt position 125, HPGDFCADAQG)
Cys25 [2] = molecular target: Cys25 (UniProt position 158, GSCGSCWAFSA)
Cys72 = Cys72 (UniProt position 72, VFGMGCFWGAE)
Cys25 [3] = molecular target: Cys25 (UniProt position 157, GSCGSCWAFSA)
Cys29 = Cys29 (UniProt position 108, GSCGSCWAFGA)
Cys283 [4] = molecular target: Cys283 (UniProt position 283, GYVLTCPSNLG)
Cys145 = Cys145 (UniProt position 145, PILIPCHRVVC)
Cys102 = Cys102 (UniProt position 102, KFLTPCYHPNV)
Cys88 = Cys88 (UniProt position 88, ADGSICLDILQ)

For “Muscle creatine kinase S285A (HMCK S285A) (Homo sapiens; S285A)”, the pKa (Cys283 [1]) is listed as 6.7.
In the case of “Ubiquitin-conjugating enzyme Ubc13 (Saccharomyces cerevisiae)”, the pKa (Cys87) is listed as 11.1.
In the case of “Myoglobin A125C (Mb A125C) (Physeter macrocephalus (sperm whale); A125C)”, the pKa (Cys125) is listed as 8.4.
For “Alkyl hydroperoxide reductase C (AhpC) (Salmonella (article gives genus only; Salmonella typhimurium inferred))”, the pKa (Cys46) is listed as 5.9.
For “Myoglobin G124C (Mb G124C) (Physeter macrocephalus (sperm whale); G124C)”, the pKa (Cys124) is given as 6.5.
For “Papain (papaya proteinase I) (Carica papaya)”, the pKa (Cys25 [2]) is listed as 3.3.
For “Methionine sulfoxide reductase A E115Q (MmsrA E115Q) (Mus musculus; E115Q)”, the pKa (Cys72) is given as 8.2.
For “Papaya protease omega (caricain) (Carica papaya)”, the pKa (Cys25 [3]) is listed as 2.9.
In the case of Cathepsin B (Rattus norvegicus), the pKa (Cys29) is given as 3.6.
For “Muscle creatine kinase (HMCK) (Homo sapiens)”, the pKa (Cys283 [4]) is listed as 5.6.
In the case of “O6-alkylguanine-DNA alkyltransferase (AGT) (Homo sapiens)”, the pKa (Cys145) is given as 5.3.
For “Ubiquitin-conjugating enzyme UbcH10 C114S (Homo sapiens; C114S)”, the pKa (Cys102) is given as 10.9.
In the case of “Methionine sulfoxide reductase A (MmsrA) (Mus musculus)”, the pKa (Cys72) is given as 7.2.
In the case of “Ubiquitin-conjugating enzyme E2 B (Ubc2b; 'Ubc2' in Table 1) (Homo sapiens)”, the pKa (Cys88) is given as 10.2.
